Results published in patent US20140141093A1 (DOMANTIS, published 2014).

T1: TNFR1-FC fusion (human, UniProt P19438 30-211, limits assumed)
T1 construct: not shown: Fc part (captured by goat anti-human IgG)
T1 sequence (looked up): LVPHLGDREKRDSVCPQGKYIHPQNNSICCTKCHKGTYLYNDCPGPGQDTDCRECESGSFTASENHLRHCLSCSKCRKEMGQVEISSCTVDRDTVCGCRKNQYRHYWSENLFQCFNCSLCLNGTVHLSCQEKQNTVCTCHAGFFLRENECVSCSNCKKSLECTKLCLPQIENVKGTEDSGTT


What was measured:
TNFR1-FC fusion = target: T1, TNFR1-FC fusion; assay: human TNFR1 receptor binding assay: inhibition of TNF-alpha (10 ng/ml) binding to bead-captured TNFR1-Fc, four replicates
human VEGF = target: T2, human VEGF (human, UniProt P15692-4 27-191, biotinylated in selections and on the SA sensorchip); assay: RBA assay (footnote †); value read as that of the Fc fusion
T2 construct: also called hVEGF; VEGFA
T2 sequence (P15692 other isoform, or with tags, fused parts or gaps limits assumed): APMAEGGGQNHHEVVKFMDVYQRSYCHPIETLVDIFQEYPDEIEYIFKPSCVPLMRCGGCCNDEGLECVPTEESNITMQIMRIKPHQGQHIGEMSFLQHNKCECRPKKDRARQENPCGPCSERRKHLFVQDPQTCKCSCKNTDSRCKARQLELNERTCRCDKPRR

Binder | IC50 (read off the curve) (TNFR1-FC fusion) [pM] | Activity (nM), RBA assay (human VEGF) [nM]
DOM1h-131-206 (other, Human VH dAb against TNFR1; also called GSK1995057A) VH: EVQLLESGGGLVQPGGSLRLSCAASGFTFAHETMVWVRQAPGKGLEWVSHIPPDGQDPFYADSVKGRFTISRDNSKNTLYLQMNSLRAEDTAVYHCALLPKRGPWFDYWGQGTLVTVSS | ~80 | –
DOM15-10 Fc fusion (Fc fusion, also called DMS1546; not shown: short peptide linker and human IgG1 Fc) DIQMTQSPSSLSASVGDRVTITCRASQWIGPELSWYQQKPGKAPKLLIYHTSILQSGVPSRFSGSGSGTDFTLTISSLQPEDFATYYCQQYMFQPRTFGQGTKVEIRR | – | 0.913
